Patent US7211241B2, “Cascade polymer complexes, process for their production and pharmaceutical agents containing said complexes” (Schering Aktiengesellschaft, priority 1995, dated 2007)

Key:
[1] = In vivo comparison with an extracellular contrast medium: blood concentrations of Gd and Dy in rats with ligated renal vessels; conditions: i.v.; for diffusion in the interstitium: compound 1 and compound 2 compared in the same animals; for time until equilibrium is reached (constant blood level): examination period 15 minutes
From the text: FIG. 1 is a graph of the measured blood concentrations of Gd (compound 1) and Dy (compound 2) in rats (n=5) with ligated renal vessels, as described in the above Example for an In Vivo Comparison with an Extracellular Contrast Medium.
The suitability of the compound described in Example 1k) as blood-pool-agent is shown in the following test.
As test animals, five male (Schering-SPF) rats that are 300–350 g in weight are used. Before the test, the abdomen is opened, the intestines are shifted and then the renal vessels (arterial+venous) of both sides are ligated through the rear peritoneum with a surgical needle. Then, the abdominal cavity is closed again. 0.3 ml (respectively 50 mmol/L) of the following contrast medium solution per animal is then administered intravenously: mixture of 1 part each of the compound of Example 1k), named compound 1 below, and the dysprosium complex of 10-(1-hydroxymethyl-2,3-dihydroxypropyl)-1,4,7-tris(carboxymethyl)-1,4,7,10-tetraazacyclododecane, produced analogously to the instructions in European Patent Application EP 448 191, named compound 2 below. Blood samples are taken with a catheter in the common carotid artery at the following times: 15, 30, 45, 60, 90 seconds, 3, 5, 10, 15 minutes p.i. In the blood samples obtained, the concentrations of gadolinium (Gd) and dysprosium (Dy) are measured with the aid of atomic emission spectrometry (ICP-AES) in each case in a parallel manner. The portion of the injected contrast medium of compound 1 (Gd) and compound 2 (Dy., comparison substance), remaining in the blood space, can be compared in the same animals by the different marking. Since a renal excretion is not possible, the decrease of the blood concentration can be attributed only to a distribution in the blood spaces and to the diffusion in the interstitial tissue.

[2] = MR angiography on rabbits; format: in vivo; conditions: i.v. 50 μmol of Gd/kg of body weight, 1.5 tesla
Experimental: The compound cited under Example 1k was studied on rabbits (CH. R. Kisslegg, ≈4 kg of body weight) in an MR angiography experiment (Ganzkörper [whole-Body] MRT System Siemens Vision, 1.5 tesla, FISP 3D; TR: 400 ms; TE 15 ms; flip angle: 45°; coronal).
In a precontrast picture only one to two major vessels are visible (e.g., abdominal aorta) in relatively poor contrast (signal intensity SI of these vessels against the background).

[3] = rats; cited from earlier work

| Compound | behaviour as blood-pool contrast medium [1] | diffusion in the interstitium [1] | blood concentrations ([1]; compound 1 versus compound 2, up to 15 minutes p.i.) | time until equilibrium is reached (constant blood level) [1] | blood vessels visible after administration of contrast medium [2] | contrast (SI of the vessels/SI of the background) ([2]; versus precontrast picture) | excretion route [3] |
| --- | --- | --- | --- | --- | --- | --- | --- |
| 24-mer-Gd-complex of N-(5-DO3A-yl-4-oxo-3-azahexanoyl)-cascade polyamide based on N,N,N′,N′,N″,N″-hexakis[2-(trilysylamino)-ethyl]-trimesic acid triamide [Example 1k] | behaves as a blood-pool contrast medium | considerably slowed-down | constantly higher | no equilibrium is reached | a wide variety of minor blood vessels and capillaries | marked increase | – |
| O=C([O-])CN1CCN(CC(=O)[O-])CCN(C(CO)C(O)CO)CCN(CC(=O)[O-])CC1.[Dy+3] (stereo not drawn) [compound 2, dysprosium complex of 10-(1-hydroxymethyl-2,3-dihydroxypropyl)-1,4,7-tris(carboxymethyl)-1,4,7,10-tetraazacyclododecane, reference compound] | – | diffuses quickly into the interstitial spaces of the body | – | 3–5 minutes p.i. | – | – | – |
| polylysine-GdDTPA | – | – | – | – | – | – | excreted unchanged by glomerular filtration through the kidneys |
